This is an account of results in paper PMC3573117, “Identification of the SlmA Active Site Responsible for Blocking Bacterial Cytokinetic Ring Assembly over the Chromosome” (PLoS Genetics, 2013).

In this assay the target is T1, FtsZ(D212N) (UniProt P0A9A6 1-383, D212N).
T1 construct: FtsZ, tubulin-like cell division protein, GTPase-defective derivative D212N; Polymerised with 5 mM GTP in the assay; also called FtsZ(D212N) polymers; FtsZ(D212N) protofilaments
T1 sequence (looked up): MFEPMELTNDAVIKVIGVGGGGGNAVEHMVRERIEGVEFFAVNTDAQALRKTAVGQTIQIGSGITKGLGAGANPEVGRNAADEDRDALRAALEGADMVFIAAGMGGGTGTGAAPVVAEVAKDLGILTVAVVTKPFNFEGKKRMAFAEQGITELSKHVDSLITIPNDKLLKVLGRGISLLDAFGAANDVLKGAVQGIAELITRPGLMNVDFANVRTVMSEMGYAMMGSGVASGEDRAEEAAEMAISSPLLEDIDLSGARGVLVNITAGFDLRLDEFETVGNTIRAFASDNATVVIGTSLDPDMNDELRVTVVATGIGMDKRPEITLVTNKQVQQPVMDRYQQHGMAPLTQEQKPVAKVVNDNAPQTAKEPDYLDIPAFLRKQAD
Kind of assay: co-sedimentation; FtsZ(D212N) 5 µM with GTP 5 mM, SBS17 DNA 2.5 µM and SlmA derivative 5 µM, room temperature 15 min; 80,000 rpm, TLA100.2 rotor, 15 min; supernatant and pellet on SDS-PAGE, Coomassie. Conditions: both partners purified.

B1: SlmA(WT) (natural protein, Escherichia coli, UniProt P0C093 1-198, looked up)
chain: MAEKQTAKRNRREEILQSLALMLESSDGSQRITTAKLAASVGVSEAALYRHFPSKTRMFDSLIEFIEDSLITRINLILKDEKDTTARLRLIVLLLLGFGERNPGLTRILTGHALMFEQDRLQGRINQLFERIEAQLRQVLREKRMREGEGYTTDETLLASQILAFCEGMLSRFVRSEFKYRPTDDFDARWPLIAAQLQ
notes: SlmA, nucleoid occlusion factor, TetR-like protein of Escherichia coli; Stood in the assay with SBS17 DNA (SlmA-SBS complex); Serves also as the parent for mutation effects seen with the BACTH fusions; also called wild-type SlmA
As to B1, the binding result is listed as “binds”.
